Here are results for one substance from article PMC8428573.

The stoichiometry N is a count of units in the complex or per binding partner.

In this experiment the target is SARS-CoV-2 spike protein extracellular domain (residues 14 to 1209, S1 and S2 without the transmembrane domain) (SARS-CoV-2) (UniProt P0DTC2). As to the kind of experiment: SEC.

As to “SARS-CoV-2 spike protein extracellular domain (residues 14 to 1209, S1 and S2 without the transmembrane domain) (from UniProt P0DTC2 14-1209) (domain or fragment)”, the stoichiometry N was 3.
